Data reported in US20230235075A1 (DYNAMICURE BIOTECHNOLOGY, published 2023).
Changes are numbered by the printed parent chain.

T1: Human CD93 on the cell surface (human CD93 expressing CHO cells; HUVEC, U937 and KG1a cells) (human, UniProt Q9NPY3 22-652)
T1 construct: whole, on cells; also called hCD93 CHO cells; CHO-hCD93
T1 sequence (looked up): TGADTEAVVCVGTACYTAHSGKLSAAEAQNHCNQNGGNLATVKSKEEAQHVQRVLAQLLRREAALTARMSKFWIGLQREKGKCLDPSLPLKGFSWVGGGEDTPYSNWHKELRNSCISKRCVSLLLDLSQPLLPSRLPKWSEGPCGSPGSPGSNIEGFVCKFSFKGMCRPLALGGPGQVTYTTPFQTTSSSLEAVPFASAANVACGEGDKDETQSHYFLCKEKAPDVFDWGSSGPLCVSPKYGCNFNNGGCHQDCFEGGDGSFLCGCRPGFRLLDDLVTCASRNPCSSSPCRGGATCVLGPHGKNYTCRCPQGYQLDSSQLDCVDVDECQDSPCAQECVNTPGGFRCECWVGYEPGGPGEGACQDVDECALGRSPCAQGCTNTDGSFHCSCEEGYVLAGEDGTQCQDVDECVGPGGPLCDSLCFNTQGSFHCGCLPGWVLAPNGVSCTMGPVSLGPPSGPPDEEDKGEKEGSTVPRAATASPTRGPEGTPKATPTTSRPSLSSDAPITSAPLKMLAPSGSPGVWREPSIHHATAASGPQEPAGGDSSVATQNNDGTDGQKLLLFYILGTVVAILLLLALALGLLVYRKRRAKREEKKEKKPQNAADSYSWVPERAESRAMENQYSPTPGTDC

T2: Human CD93 recombinant protein (Sino Biological Inc, Catalog #12589-H08H) (human, UniProt Q9NPY3 22-580, biotinylated with EZ-LINK NHS-PEG4 biotin in the Octet assays)
T2 construct: also called hCD93; His-tagged human CD93
T2 sequence (looked up): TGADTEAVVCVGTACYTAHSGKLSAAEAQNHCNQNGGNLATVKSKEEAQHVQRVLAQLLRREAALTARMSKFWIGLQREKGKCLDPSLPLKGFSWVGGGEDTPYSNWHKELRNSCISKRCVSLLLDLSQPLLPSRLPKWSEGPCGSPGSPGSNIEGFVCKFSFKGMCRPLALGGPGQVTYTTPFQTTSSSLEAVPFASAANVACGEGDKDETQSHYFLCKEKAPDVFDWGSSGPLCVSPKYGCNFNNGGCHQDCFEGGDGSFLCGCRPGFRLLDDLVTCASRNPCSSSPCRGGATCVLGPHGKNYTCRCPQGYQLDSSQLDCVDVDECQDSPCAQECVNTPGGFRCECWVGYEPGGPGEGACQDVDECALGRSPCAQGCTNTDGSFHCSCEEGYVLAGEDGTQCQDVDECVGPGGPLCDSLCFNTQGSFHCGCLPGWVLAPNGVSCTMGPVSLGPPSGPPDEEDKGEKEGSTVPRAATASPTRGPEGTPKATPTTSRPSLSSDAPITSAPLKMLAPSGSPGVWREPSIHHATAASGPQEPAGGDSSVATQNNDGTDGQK

B1: Humanized 17B10 H1L1 (antibody, mouse IgG1, V domains shown)
VH: QVQLVQSGAEVKKPGSSVKVSCKASGYAFSSYWLNWVRQAPGQGLEWFGRIYPGDGDTDYNGKFKGRVTLTADKSTSTAYMELSSLRSEDTAVYFCVRGDGYWAMDYWGQGTTVTVSS
VL: DIVMTQSPLSLPVTPGEPASISCRFSQSLLHSNGITYLYWYLQKPGQSPQLLIYQMSNLASGVPDRFSGSGSGTDFTLKISRVEAEDVGVYYCAQNLELPWTFGGGTKLEIK
notes: Chimeric Fc: mouse IgG1 CH2 and CH3 domains and human CH1 domains
B2: Humanized 17B10 H1L3 (antibody, mouse IgG1, V domains shown)
VH: B1 VH
VL: DIVMTQSPDSLAVSLGERATINCRFSKSLLHSNGITYLYWYQQKPGQPPKLLIYQMSNLASGVPDRFSGSGSGTDFTLTISSLQAEDVAVYYCAQNLELPWTFGGGTKLEIK
B3: Humanized 17B10 H3L1 (antibody, mouse IgG1, V domains shown)
VH: QVQLVQSGPEVKKPGESLKISCKASGYAFSSYWLNWVRQMPGKGLEWMGRIYPGDGDTDYNGKFKGQVTISADKSSGTAYLQLSSLKASDTAVYFCVRGDGYWAMDYWGQGTLVTVSS
VL: B1 VL
B4: Humanized 17B10 H1L2 (antibody, mouse IgG1, V domains shown)
VH: B1 VH
VL: B1 VL with S7T, Q55T
B5: Humanized 17B10 H2L3 (antibody, mouse IgG1, V domains shown)
VH: QVQLVQSGAEVVKSGASVKVSCKASGYAFSSYWLNWVRQAPGQGLEWFGRIYPGDGDTDYNGKFKGRVTLIRDTSTSTVYMELTSLTSEDTAVYYCVRGDGYWAMDYWGQGTLVTVSS
VL: B2 VL
B6: Humanized 17B10 H3L2 (antibody, mouse IgG1, V domains shown)
VH: B3 VH
VL: B1 VL with S7T, Q55T
B7: Humanized 17B10 H2L1 (antibody, mouse IgG1, V domains shown)
VH: B5 VH
VL: B1 VL
B8: 19E12 (antibody, V domains shown)
VH: QVQLQQSGAELVRPGASVKLSCKASGYTFTDYEMHWVRQTPVHGLEWIGGIDPETGGTAYNQKFKGKATLTADKSSSTAYMELRSLTSEDSAVYYCTRGAWFAYWGQGTLVTVSA
VL: QAVVTQESALTTSPGETVTLTCRSSTGAVTTSNSANWVQEKPDHLFTGLIGGTNNRAPGVPARFSGSLIGDKAALTITGAQTEDEAIYFCALWYNNHFVFGGGTKLTVL
notes: Mouse hybridoma monoclonal antibody
B9: 16B6 (antibody, V domains shown)
VH: QVQLQQSGPELVKPGASVKISCKASGYAFSRSWMNWVKQRPGKGLEWIGWIYPGDGDTNYNGKFKGKATLTADKSSSTAYMQLSSLTSEDSAAYFCARSATLPYWYFDVWGAGTTVTVSS
VL: DIKMTQSPSSMYASLGERVTITCKASQDIKSYLSWYQQKPWKSPKTLIYYATNLADGVPSRFSGSGSGQDYSLTISSLGSDDTATYYCLQHVESPWTFGGGTKLEIK
notes: as for B8
B10: 5H9 (antibody, IgG2a, V domains shown)
VH: QVQLQQSGPDLVKPGASVKISCKASGYAFSTYWMNWVKQRPGKGLEWIGRIFPGDGDANYNGKFKGKATLTADKSSSTAYMQLSSLTSEDSAVYFCTRTGAAYDFDPFPYWGQGTLVTVSA
VL: DIVMTQAAFSNPVTLGTSASISCSSSKSLLHSNGVTYLYWYLQRPGQSPQLLIYRMSNLASGVPDRFSGSGSGTDFTLRISRVEAEDVGIYYCAQMLERPFTFGSGTKLEIK
notes: also called 5H9 mIgG2a
B11: 16G9 (antibody, V domains shown)
VH: EVQLQQSGPELVKPGASVKMSCKASGYTFTDYYMNWVKQSHGKSLEWIGRVNPNNGGKTYNQKFKGKATLTVDKSLSTAYMQLNSLTSEDSAVYYCARWRLRPVDYGMDYWGQGTSVTVSS
VL: DIVLTQSPASLAVSLGQRATISCRASQSVSTSSYSYMHWYQQKPGQPPKLLIKYASNLESGVPARFSGSGSGTDFTLNIHPVEEEDTATYYCQHSWEIPFTFGSGTKLEIK
notes: as for B8
B12: 19B5 (antibody, V domains shown)
VH: DVNLVESGGGLVKLGGSLKLSCAASGFTFSNYYMSWVRQSPEKRLEWVATISNNGDSTYYLDTVKGRFTISRDSAENTLYLQMSSLISEDTAVYYCTRVGTGFTYWGQGTLVTVSA
VL: DIVLTQSPATLSVTPGDSVSLSCRASQSINNYLHWYQQRSHESPRLLIKFASQSISDIPSRFSGSGSGTDFTLSINSIETEDFGMYFCQQSNSWPLTFGAGTKLELK
notes: as for B8
B13: 20C7 (antibody, V domains shown)
VH: EVQLQQSGPELVNPGASVKMSCKASGYTFTAYVMHWVKQKPGQGLEWIGYIFPYNDGTEYNEKFKGKATLTSDKSSSTAYMELSSLTSEDSAVYYCARRTDGNPYTMDYWGQGTSVTVSS
VL: DIVMTQSHKFMSTSVGDRVSITCKASQDVSTAVAWYQQKPGQSPKLLIHSASYRYTGVPDRFTGRGSGTDFTFTISSVQAEDLAVYYCQQHYSTPFTFGSGTKLEIK
notes: as for B8
B14: 17E6 (antibody, V domains shown)
VH: B13 VH with N13K, A31S, M34I, F52N, N55S, G57Y, E59Q, Y95S, T100A, T106A
VL: B13 VL with I21T, A34V, H49Y, R65S, S76T
notes: as for B8
B15: 12H4 (antibody, V domains shown)
VH: EVQLQQSGPELVKPGASVKVSCKASGYTFTDYYIHWVKQRPGQGLEWIGEIYPGSDDAYYNEKFKGKATLTADKSSSTAYMQLSSLTSEDSAVYFCTRETTATAYWGQGTLVTVSA
VL: QIVLTQSPAIMSASPGEKVTITCSASSSVSLIYWFQQKPGTSPKLWIYSTSNLASGVPARFSGSGSGTSYSLTISRMEAEDAATYYCQQRSGYPPTFGGGTKLEIK
notes: as for B8
B16: 17A7 (antibody, V domains shown)
VH: B10 VH with D10E, A24G, A58T, N59D, N61D, S77N, T97A, D104E
VL: B10 VL with S26T, N33S, V35I, I90V
notes: as for B8

Biological target: T1, Human CD93 on the cell surface (human …)
Assay: FACS, CHO cells overexpressing human CD93

Row | binding result | Binder
1 | binds | B1
2 | binds | B2
3 | binds | B3
4 | binds | B4
5 | binds | B5
6 | binds | B6
7 | binds | B7

Biological target: T2, Human CD93 recombinant protein (Sino …)
Assay: Octet epitope binning on biotinylated human CD93, antibody 10 µg/ml
Method: Anti-CD93 antibody epitope bins were determined using Octet QKe (Fortebio). Human CD93 recombinant protein (Sino Biological Inc, Catalog #12589-H08H) were biotinylated using EZ-LINK NHS-PEG4 biotin (Thermo Fisher Scientific). Streptavidin biosensors tips (Fortebio) were used to capture biotinylated human CD93 protein (300 seconds in 5 μg/ml). The baseline was stabilized for 60 seconds in 1× kinetics buffer (Fortebio) before primary anti-CD93 antibodies (10 μg/ml) were allowed to associate for 300 seconds with captured protein. A panel of secondary anti-CD93 antibodies (10 μg/ml) were then allowed to associate with the antigen and primary antibody complex for additional 300 seconds. Signals were recorded for each binding event and data analysis was performed on ForteBio Data Analysis HT 11.1 software.

Row | binding result | Binder
8 | binds | B8
9 | binds | B9
10 | binds | B10
11 | binds | B11

Biological target: T1, Human CD93 on the cell surface (human …)
Assay: summary table, column 'Binding' (assay not given)

Row | binding result | Binder
12 | binds | B12
13 | binds | B8
14 | binds | B9
15 | binds | B13
16 | binds | B14
17 | binds | B15
18 | binds | B10
19 | binds | B16
20 | binds | B11
